Residue numbers refer to the chain shown, from its start.
Tests used:
[1] = test system: HEK-5T4 cells; assay: Internalization assay (Incucyte FabFluor-pH), HEK-5T4 cells; assay type: cell-based
Description: Adherent cells were harvested at 70-90% confluence and were plated overnight at 37° C. in a 96-well black, clear/flat bottom half-area plate (Corning 3882) at 20,000 cells/well in 50 μL culture media. For suspension cell lines, 96-well plates were coated with poly-L-ornithine solution (Millipore-Sigma) for 1 hour at 37° C. and cells were seeded at 40,000 cells per/well density in 50 μL culture media, about 1 to 2 hours prior to the assay. Antibodies were diluted in cell culture media, mixed with 3× molar concentration of Incucyte human FabFluor-pH red antibody labelling reagent and incubated for 15 minutes at room temperature. 2× final concentration of all dilutions of antibody/FabFluor mix was prepared. 50 μL of 2× antibody/Fab-Fluor mix was then directly added to every well with pre-seeded cells in duplicates and plate was quickly transferred to Incucyte. Plates were then scanned every 30 minutes for up to 24 hours. Care was taken to begin the first scanning (0 hour) within 2 to 3 minutes of adding antibody/FabFluor mix to the cells. Plates were analyzed by reading the red signal generated overtime, normalized to the % confluence of cells in that well. Few antibodies were tested at different concentrations on target cell lines, and the best concentration was selected based on a good signal:noise ratio.

[2] = Standup monolayer adsorption chromatography (SMAC) developability; assay type: physicochemical; settings: 1 mg/mL in Dulbecco's PBS pH 7.4
Description: Antibodies that were selected for binding to 5T4, such as those described in Examples 2 and 3, were tested by various methods to assess developability. For example, various chromatographic methods, including size exclusion chromatography (SEC), hydrophobic interaction chromatography (HIC), and standup monolayer adsorption chromatography (SMAC) were employed to assess factors, such as monomer percentage, solubility, and antibody aggregation or precipitation.
Standup monolayer adsorption chromatography (SMAC) analysis was performed using a 4.6 mm ID×300 mm Zenix SEC 300 column (Sepax Technologies, PN 213300P-4630) with a 4.6 mm×50 mm guard column (PN 213300P-4605) on an Agilent 1100 HPLC. Antibodies were normalized to 1 mg/mL concentration in Dulbecco's PBS (pH 7.4, without Ca^2+/Mg^2+) and clarified via centrifugation to pellet particulates while still retaining soluble aggregates. The mobile phase buffer was Dulbecco's PBS (pH 7.4, without Ca^2+/Mg^2+) at 2× concentration (diluted from 10× stock concentration). For each sample, 10 μL was loaded and isocratically eluted at 0.4 mL/minute over 32 minutes at ambient temperature. Absorbance was monitored at 280 nm. Sample retention time was calculated and compared to a set of standard controls to identify antibodies with increased retention time (increased propensity to form aggregates and/or increased hydrophobic/electrostatic interactions) as the column stationary phase along with mobile phase selection promotes secondary interactions in addition to molecular sizing. Data analysis was performed using Agilent ChemStation B.04.03 SP1.

[3] = target: T1, HEK293 and CHO cells transfected to express rat 5T4 (Rattus norvegicus, UniProt Q5PQV5); assay: Cell binding to transfected HEK293 and CHO cells, rat 5T4; assay type: cell-based
T1 construct: expressed in transfected cells; host or cells: HEK293 and CHO
T1 sequence (Q5PQV5 32-426): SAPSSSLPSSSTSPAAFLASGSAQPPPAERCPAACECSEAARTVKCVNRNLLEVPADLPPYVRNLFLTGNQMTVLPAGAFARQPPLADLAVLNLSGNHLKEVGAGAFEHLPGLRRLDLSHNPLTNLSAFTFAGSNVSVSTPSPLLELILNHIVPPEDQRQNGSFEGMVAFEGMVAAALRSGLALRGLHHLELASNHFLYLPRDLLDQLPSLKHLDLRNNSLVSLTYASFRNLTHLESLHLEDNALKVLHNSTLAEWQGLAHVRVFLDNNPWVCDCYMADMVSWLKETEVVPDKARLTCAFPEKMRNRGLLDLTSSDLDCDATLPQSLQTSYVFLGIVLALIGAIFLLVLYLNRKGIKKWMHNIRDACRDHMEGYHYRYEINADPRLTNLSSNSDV
Description: Unconjugated antibodies were tested for their ability to bind to HEK293 and CHO cells transfected to express human, cyno, rat, or mouse 5T4.

[4] = target: T2, unconjugated human TPBG/5T4 protein with a c-terminal polyhistidine and Avi tag (AcroBiosystems Cat. No. … (human, UniProt Q13641 32-355)); assay: Octet, antibody on AHC sensors, human 5T4 in solution (monovalent); Acro TPGH52E5 Lot B465-87AF1-K2
T2 construct: Bought protein; also called Acro TPGH52E5; Acro Catalog No. TPGH52E; not shown: C-terminal polyhistidine and Avi tag
T2 sequence: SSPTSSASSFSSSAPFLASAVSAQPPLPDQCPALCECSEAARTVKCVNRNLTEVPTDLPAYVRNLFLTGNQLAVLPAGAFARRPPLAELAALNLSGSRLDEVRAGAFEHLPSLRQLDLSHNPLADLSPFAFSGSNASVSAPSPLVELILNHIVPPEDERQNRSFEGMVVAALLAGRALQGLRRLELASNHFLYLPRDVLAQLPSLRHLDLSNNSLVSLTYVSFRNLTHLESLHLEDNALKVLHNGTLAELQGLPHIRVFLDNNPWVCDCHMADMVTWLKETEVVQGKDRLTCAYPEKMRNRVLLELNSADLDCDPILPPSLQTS
Description: Monovalent binding assays were employed to determine the relative affinity of each 5T4 binder obtained by the phage display in Example 1 to human 5T4. Human 5T4 was purchased from Acro Biosystems (Acro Catalog No. TPGH52E) and also produced separately. The monovalent interaction of binders to human 5T4 was monitored using an Octet (Pall ForteBio) instrument. For these assays, 36 nM antibody was immobilized on anti-human Fc (AHC) sensors in 1× kinetic buffer (ForteBio). The sensors were then dipped in wells containing a 3× serial dilution of human 5T4 ranging from 1 μM to 1.37 nM. The association was allowed to reach equilibrium. Sensors were then moved to wells containing only 1× kinetic buffer and allowed to dissociate to equilibrium. Association and dissociation rates were measured and from these, monovalent KDS were calculated using the onboard analysis software (ForteBio).

[5] = target: T3, cynomolgus 5T4 on cells (HEK-cyno-5T4, transfected HEK293 and CHO cells) (cynomolgus monkey, UniProt Q4R8Y9 35-420); assay: flow cytometry on HEK-cyno-5T4 cells
T3 construct: also called HEK-cyno-5T4 cells
T3 sequence: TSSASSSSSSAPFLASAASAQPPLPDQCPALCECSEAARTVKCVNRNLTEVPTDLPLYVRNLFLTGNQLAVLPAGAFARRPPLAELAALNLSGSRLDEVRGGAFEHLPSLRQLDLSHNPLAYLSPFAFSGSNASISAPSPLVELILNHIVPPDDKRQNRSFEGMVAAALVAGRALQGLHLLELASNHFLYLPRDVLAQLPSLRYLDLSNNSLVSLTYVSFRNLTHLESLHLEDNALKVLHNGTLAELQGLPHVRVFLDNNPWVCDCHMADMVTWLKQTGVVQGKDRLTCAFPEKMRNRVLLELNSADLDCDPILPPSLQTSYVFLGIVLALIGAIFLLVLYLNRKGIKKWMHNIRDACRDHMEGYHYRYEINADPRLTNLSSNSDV

B1: mAbA4: 5T4 antibody comprising VH of SEQ ID NO:25 and VL of SEQ ID NO:26 (antibody, V domains shown)
VH: EVQLVESGGGLVQPGGSLRLSCAASGFTFSRYYIHWVRQAPGKGLEWVAFISPGGSYTYYADSVKGRFTISADTSKNTAYLQMNSLRAEDTAVYYCAREYYSMGVLDYWGQGTLVTVSS
VL: DIQMTQSPSSLSASVGDRVTITCRASQSVSSAVAWYQQKPGKAPKLLIYSASSLYSGVPSRFSGSRSGTDFTLTISSLQPEDFATYYCQQAYESPYTFGQGTKVEIK
modifications: Antibody mAbA4 VH Sequence; Antibody mAbA4 VL Sequence
- internalization in HEK-5T4 cells [1]: strong internalization
- developability based on SMAC analysis [2]: strong developability
- reactivity to cells transfected to express rat 5T4 [3]: not to cells transfected to express rat or mouse 5T4

B2: mAbA15: 5T4 antibody comprising VH of SEQ ID NO:44 and VL of SEQ ID NO:45 (antibody, V domains shown)
VH: EVQLVESGGGLVQPGGSLRLSCAASGFTFSSYYIHWVRQAPGKGLEWVAYITSTGSYTEYADSVKGRFTISADTSKNTAYLQMNSLRAEDTAVYYCARYDRSTRYSGLDYWGQGTLVTVSS
VL: B1 VL with E93A, S94T, Y96V
modifications: Antibody mAbA15 VH Sequence; Antibody mAbA15 VL Sequence
- internalization in HEK-5T4 cells [1]: strong internalization
- developability based on SMAC analysis [2]: strong developability
- reactivity to cells transfected to express rat 5T4 [3]: not to cells transfected to express rat or mouse 5T4

B3: mAbA17 (antibody, V domains shown)
VH: EVQLVESGGGLVQPGGSLRLSCAASGFTFSRYWIHWVRQAPGKGLEWVAAIFPYSGSTLYADSVKGRFTISADTSKNTAYLQMNSLRAEDTAVYYCARSPSRSILPSGLDYWGQGTLVTVSS
VL: DIQMTQSPSSLSASVGDRVTITCRASQSVSSAVAWYQQKPGKAPKLLIYSASSLYSGVPSRFSGSRSGTDFTLTISSLQPEDFATYYCQQGDGSPYTFGQGTKVEIKR
notes: also called Antibody mAbA17
- Kd [4]: 2.81 nM

B4: mAbA17: 5T4 antibody comprising VH of SEQ ID NO:62 and VL of SEQ ID NO:63 (antibody, V domains shown)
VH: B3 VH
VL: B1 VL with A91G, Y92D, E93G
modifications: Antibody mAbA17 VH Sequence; Antibody mAbA17 VL Sequence
- developability based on SMAC analysis [2]: strong developability
- reactivity to cells transfected to express rat 5T4 [3]: not to cells transfected to express rat or mouse 5T4

B5: mAbA4 (antibody, V domains shown)
VH: B1 VH
VL: B3 VL with G91A, D92Y, G93E
notes: also called Antibody mAbA4
- binding result [5]: binds
- Kd [4]: 0.01 nM

B6: mAbA15 (antibody, V domains shown)
VH: B2 VH
VL: B3 VL with G91A, D92Y, G93A, S94T, Y96V
notes: also called Antibody mAbA15
- binding result [5]: binds
- Kd [4]: 3.62 nM

Reference: US20250295803A1, “5T4 ANTIBODY-DRUG CONJUGATES AND USES THEREOF” (EXELIXIS, INC., priority 2022, published 2025)
